From patent publication US20050136043A1, “TGFbeta signaling inhibitors” (Ludwig Institute for Cancer Research, priority 2003, published 2005)

How the values were obtained:
Test in all cases: In vitro kinase assay (autophosphorylation) of receptor expressed in COS-7 cells
Assay type in all cases: biochemical
Details in all cases: 10 μM peptide, FIG. 5
[1] = target: T1, ActR-I (ALK-2) (Homo sapiens, UniProt Q04771)
T1 sequence (Q04771 21-509): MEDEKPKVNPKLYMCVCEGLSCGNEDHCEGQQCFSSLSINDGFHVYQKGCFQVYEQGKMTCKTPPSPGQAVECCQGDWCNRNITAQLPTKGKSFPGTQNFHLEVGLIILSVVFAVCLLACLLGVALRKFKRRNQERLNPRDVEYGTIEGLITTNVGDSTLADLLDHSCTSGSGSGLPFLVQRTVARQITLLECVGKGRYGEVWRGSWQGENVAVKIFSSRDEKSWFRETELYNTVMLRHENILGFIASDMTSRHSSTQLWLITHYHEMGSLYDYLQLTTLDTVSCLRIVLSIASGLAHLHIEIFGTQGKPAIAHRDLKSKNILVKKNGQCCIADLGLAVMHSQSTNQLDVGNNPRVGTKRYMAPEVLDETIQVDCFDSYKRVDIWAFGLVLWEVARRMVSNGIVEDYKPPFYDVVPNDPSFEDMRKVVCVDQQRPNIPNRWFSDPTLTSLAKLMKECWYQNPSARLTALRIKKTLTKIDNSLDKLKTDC
Procedure: (§1) For in vitro kinase assay of type I and type II TGFβ family receptors, p38α and SAPKα2 kinases, COS-7 cells were transfected with the kinase expression vectors or the control empty pcDNA3 vector using the DEAE-dextran method. Proteins were extracted in a lysis buffer (50 mM Tris-HCl, pH 7.5, 50 mM NaCl, 1% NP-40, 10 μg/mL aprotinin, 0.1 mM PMSF). HA-tagged proteins (ALK1 to ALK7, p38R, SAPKR2) were immunoprecipitated with anti-HA antibody (12CA5; Roche); His6-tagged proteins (type II receptors) were precipitated with Ni-NTA agarose (Qiagen). The precipitates were washed in extraction buffer, with 20 mM imidazole for Ni-NTA agarose-precipitated proteins, and two times with kinase buffer (20 mM HEPES, pH 7.4, 10 mM MgCl2, 2 mM MnCl2, 1 mM DTT). The kinase reaction was initiated by addition of 20 μL of kinase buffer containing 0.5 μCi of [γ-32P]ATP, 5.0 μM ATP, and inhibitory peptides at a final concentration of 10 μM. The reaction was performed at 22° C. for 20 min and terminated by addition of SDS-containing sample buffer and boiling for 5 min. The reaction products were analyzed by SDS-PAGE and exposure in a Fuji X2000 phosphorimager. Equal loading was controlled by immunoblotting aliquots of the samples with a HA probe (Y-11; Santa Cruz) or anti-His antibody (Qiagen).
(§2) To evaluate whether the substrate-mimicking peptides affect kinases of type I and type II reptors of the TGFβ family, we studied the influence of peptides on authophosphorylation of all known mammalian type I receptors [ALK-1, ActR-I (ALK-2), BMPR-IA (ALK-3), ActR-IB (ALK-4), TβR-I (ALK-5), BMPR-IB (ALK-6), and ALK-7], TβRII, ActR-II, BMPR-II, p38R, and SAPKR2 (FIG. 5). The kinases were expressed in COS-7 cells and purified by using specific anti-tag antibodies or Ni-NTA agarose, and kinase activity was tested in the presence of peptides.

[2] = target: T2, BMPR-IA (ALK-3) (Homo sapiens, UniProt P36894)
T2 construct: made in house; host or cells: COS-7 cells (transfected, immunoprecipitated)
Procedure: as §1, §2

[3] = target: T3, BMPR-IB (ALK-6) (Homo sapiens, UniProt O00238)
T3 construct: made in house; host or cells: COS-7 cells (transfected, immunoprecipitated)
Procedure: as §1, §2

[4] = target: T4, ALK-7 (Homo sapiens, UniProt Q8NER5)
T4 construct: made in house; host or cells: COS-7 cells (transfected, immunoprecipitated)
T4 sequence (Q8NER5 21-493): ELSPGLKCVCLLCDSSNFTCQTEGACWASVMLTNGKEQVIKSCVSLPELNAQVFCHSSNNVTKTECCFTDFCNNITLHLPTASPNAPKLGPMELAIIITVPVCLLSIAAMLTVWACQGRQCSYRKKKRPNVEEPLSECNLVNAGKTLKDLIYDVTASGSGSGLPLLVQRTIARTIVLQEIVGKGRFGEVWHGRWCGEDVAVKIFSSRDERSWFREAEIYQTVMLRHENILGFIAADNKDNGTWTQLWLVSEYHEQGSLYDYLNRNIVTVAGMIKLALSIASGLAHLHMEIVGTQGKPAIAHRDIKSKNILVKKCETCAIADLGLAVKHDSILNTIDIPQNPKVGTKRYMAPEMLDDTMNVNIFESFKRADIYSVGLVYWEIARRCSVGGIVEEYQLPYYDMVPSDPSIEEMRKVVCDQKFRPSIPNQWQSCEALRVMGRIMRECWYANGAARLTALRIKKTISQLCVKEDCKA
Procedure: as §1, §2

[5] = target: T5, ActR-IB (ALK-4) (Homo sapiens, UniProt P36896)
T5 construct: made in house; host or cells: COS-7 cells (transfected, immunoprecipitated)
T5 sequence (P36896 24-505): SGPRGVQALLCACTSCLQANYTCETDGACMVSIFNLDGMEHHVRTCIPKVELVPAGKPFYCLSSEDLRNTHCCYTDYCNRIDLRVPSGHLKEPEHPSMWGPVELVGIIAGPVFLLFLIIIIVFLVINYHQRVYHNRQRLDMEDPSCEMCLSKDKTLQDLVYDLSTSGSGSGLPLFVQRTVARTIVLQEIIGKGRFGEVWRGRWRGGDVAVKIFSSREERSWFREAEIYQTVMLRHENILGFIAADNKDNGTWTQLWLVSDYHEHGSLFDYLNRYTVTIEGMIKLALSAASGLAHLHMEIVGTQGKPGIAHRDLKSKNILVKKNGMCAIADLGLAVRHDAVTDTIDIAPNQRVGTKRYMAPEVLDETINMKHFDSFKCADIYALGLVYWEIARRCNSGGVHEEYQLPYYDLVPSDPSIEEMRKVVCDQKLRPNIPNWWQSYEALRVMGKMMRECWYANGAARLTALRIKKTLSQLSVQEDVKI
Procedure: as §1, §2

T3 sequence (O00238 14-502): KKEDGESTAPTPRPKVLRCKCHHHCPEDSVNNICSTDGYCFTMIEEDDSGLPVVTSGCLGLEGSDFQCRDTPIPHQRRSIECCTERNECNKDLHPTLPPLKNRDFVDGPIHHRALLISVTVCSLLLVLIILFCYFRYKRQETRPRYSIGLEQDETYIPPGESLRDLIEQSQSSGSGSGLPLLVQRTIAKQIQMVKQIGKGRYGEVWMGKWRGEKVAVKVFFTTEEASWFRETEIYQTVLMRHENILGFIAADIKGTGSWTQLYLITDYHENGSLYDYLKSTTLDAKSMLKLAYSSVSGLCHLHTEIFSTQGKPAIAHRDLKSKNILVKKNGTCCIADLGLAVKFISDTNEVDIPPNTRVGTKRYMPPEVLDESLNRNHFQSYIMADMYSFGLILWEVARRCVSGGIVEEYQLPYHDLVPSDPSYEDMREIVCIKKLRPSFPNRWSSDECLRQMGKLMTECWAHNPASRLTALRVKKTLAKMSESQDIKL
T2 sequence (P36894 24-532, species assumed): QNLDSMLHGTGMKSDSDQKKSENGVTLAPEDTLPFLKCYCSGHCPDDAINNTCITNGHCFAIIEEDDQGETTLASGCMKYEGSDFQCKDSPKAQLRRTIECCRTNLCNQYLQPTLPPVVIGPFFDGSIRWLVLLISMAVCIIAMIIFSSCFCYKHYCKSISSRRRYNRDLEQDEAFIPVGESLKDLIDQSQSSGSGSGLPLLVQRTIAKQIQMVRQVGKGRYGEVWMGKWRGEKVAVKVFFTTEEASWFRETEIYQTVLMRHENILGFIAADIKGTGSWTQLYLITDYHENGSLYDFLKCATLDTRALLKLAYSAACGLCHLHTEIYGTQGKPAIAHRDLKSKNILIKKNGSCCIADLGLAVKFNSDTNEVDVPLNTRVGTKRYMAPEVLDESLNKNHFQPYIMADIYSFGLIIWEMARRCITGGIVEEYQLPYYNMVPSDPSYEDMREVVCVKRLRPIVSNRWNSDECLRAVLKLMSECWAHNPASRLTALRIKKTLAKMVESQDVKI

RQIKIWFQNRRMKWKKTQMGSPSVRCSAMA (listed as Homo sapiens) [antp-Sm2A]
without any effect: Effect on ActR-I (ALK-2) kinase [1] | Effect on BMPR-IA (ALK-3) kinase [2] | Effect on BMPR-IB (ALK-6) kinase [3] | Effect on ALK-7 kinase [4] | Effect on ActR-IB (ALK-4) kinase [5]

RQIKIWFQNRRMKWKKTQMGSPSVRCSSMS (listed as Homo sapiens) [antp-Sm2S, penetratin fused to the C-terminus of wild-type Smad2]
without any effect: Effect on ActR-I (ALK-2) kinase [1] | Effect on BMPR-IA (ALK-3) kinase [2] | Effect on BMPR-IB (ALK-6) kinase [3] | Effect on ALK-7 kinase [4] | Effect on ActR-IB (ALK-4) kinase [5]
